# Results as given in FireProtDB (doi:10.1021/bi00252a018).
# B1: Subtilisin inhibitor wild type, P01006 (protein)
# chain: MRNTGAGPSPSVSRPPPSAAPLSGAALAAPGDAPSALYAPSALVLTVGKGVSATTAAPERAVTLTCAPGPSGTHPAAGSACADLAAVGGDLNALTRGEDVMCPMVYDPVLLTVDGVWQGKRVSYERVFSNECEMNAHGSSVFAF
# Conditions: Streptomyces albogriseolus, Thermal, DSC, reversible: yes (70-85%), whole UniProt chain shown
protein,measurement,setting,value
B1,Tm,"pH 2.9, glycine 25 mM",44.5 °C
same,Tm,"pH 2.94, glycine 25 mM",43.9 °C
same,Tm,"pH 2.98, glycine 25 mM",45.4 °C
same,Tm,"pH 3.03, glycine 25 mM",47.8 °C
same,Tm,"pH 3.04, glycine 25 mM",47.6 °C
same,Tm,"pH 3.07, glycine 25 mM",48.8 °C
same,Tm,"pH 3.12, glycine 25 mM",50.5 °C
same,Tm,"pH 3.15, glycine 25 mM",51.3 °C
same,Tm,"pH 3.16, glycine 25 mM",52.2 °C
same,Tm,"pH 3.2, glycine 25 mM",53.6 °C
same,Tm,"pH 3.21, glycine 25 mM",53.4 °C
same,Tm,"pH 3.24, glycine 25 mM",54.3 °C
same,Tm,"pH 3.25, glycine 25 mM",55.7 °C
same,Tm,"pH 7, phosphate 25 mM",82 °C
same,Tm,"pH 9.2, glycine 25 mM",80.1 °C
same,Tm,"pH 9.75, glycine 25 mM",80.2 °C
